The target in assay [1] is HLA class II antigens (HLA-DR, HLA-DQ and HLA-DP). Briefly: Luminex dose/response, average over 5 class II bead types, antibody at 3.13 × 10^-2 µg/ml.
Assay [2] has the same target. The assay is described as follows: Luminex dose/response, average over 5 class II bead types, antibody at 5 × 10^-1 µg/ml.
Assay [3] shares this target. Briefly: Luminex dose/response, average over 5 class II bead types, antibody at 5 × 10^-4 µg/ml.
The target is the same in assay [4]. The assay is described as follows: Boltzmann sigmoid fit of the Luminex titration curve; asymptote at infinite concentration.
For assay [5] the target is unchanged. Briefly: Luminex dose/response, average over 5 class II bead types, antibody at 2 × 10^0 µg/ml.
Assay [6] shares this target. The assay is described as follows: Luminex, Labscreen Mixed, each of the 5 class II bead types, antibody at 2 µg/ml.
Assay [7] has the same target. Briefly: Luminex dose/response, average over 5 class II bead types, antibody at 7.8 × 10^-3 µg/ml.
The target is the same in assay [8]. The assay is described as follows: Boltzmann sigmoid fit of the Luminex titration curve; asymptote as the concentration tends to 0.
Assay [9] shares this target. The assay is described as follows: Boltzmann sigmoid fit of the Luminex titration curve; concentration at 50% of the specific signal (MAX-MIN).
For assay [10] the target is unchanged. The assay is described as follows: Luminex dose/response, average over 5 class II bead types, antibody at 1.25 × 10^-1 µg/ml.
Assay [11] shares this target. Briefly: Luminex dose/response, average over 5 class II bead types, antibody at 2 × 10^-3 µg/ml.

Results on one molecule are retold here after patent publication US9637538.

B1: monoclonal chimeric immunoglobulin Hu-IgG1 K [F3.3] (antibody, V domains shown)
VH: EVKLEESGGGLVQPGGSMKLSCVASGFTFSNSWMNWVRQSPEKGLEWVAEIRLKSNNYATRYAESVKGRFTISRDDSKSSVYLQMNNLRSEDTAIYYCTPLSYSFDYWGQGTTVTVST
VL: QIVLTQSPAIMSASPGEKVTMTCSASSIVRYMYWFQQKPGSSPRLLIYDTSSLSSGVPVRFSGSGSGTSYSLTISRMEAEDAATYFCQQWSSYPLTFGGGTKLEIKR
The term EC50 denotes the concentration giving half of the maximal effect. A high value points to weaker potency. Regarding B1, the Average fluorescence intensity (fluorescence intensity) in assay [1] came to 9130; in assay [2], 22800; in assay [3] it was 316; in [5] it was 23600; in [7], 3520; in assay [10], 18000. The molecule also showed an Average fluorescence intensity (fluorescence intensity) in assay [11] of 1090. The MAX in assay [4] stood at 24600 fluorescence. Further, the fluorescence (average fluorescence units) in assay [6] was determined as 22000. For the same molecule, the MIN in assay [8] was found to be 88 fluorescence. In assay [9], this molecule displayed an EC50 of 0.05 µg/mL.
